Values joined by “and” are separate entries in the source; they are usually repeats but may differ in a detail not shown here. Equal values may be shown once. Each block holds one molecule with its values, some of them ahead of it.
How the values were obtained:
[1] = biological target: LRP6 P1E1P2E2 (Homo sapiens) (UniProt O75581); details: cited from earlier work
[2] = biological target: LRP6 P3E3P4E4 (Homo sapiens) (UniProt O75581); details: cited from earlier work
[3] = biological target: T1, human LRP6 β-propeller-EGF modules P3E3P4E4 (Homo sapiens); assay: cell-based or functional assay
T1 chain: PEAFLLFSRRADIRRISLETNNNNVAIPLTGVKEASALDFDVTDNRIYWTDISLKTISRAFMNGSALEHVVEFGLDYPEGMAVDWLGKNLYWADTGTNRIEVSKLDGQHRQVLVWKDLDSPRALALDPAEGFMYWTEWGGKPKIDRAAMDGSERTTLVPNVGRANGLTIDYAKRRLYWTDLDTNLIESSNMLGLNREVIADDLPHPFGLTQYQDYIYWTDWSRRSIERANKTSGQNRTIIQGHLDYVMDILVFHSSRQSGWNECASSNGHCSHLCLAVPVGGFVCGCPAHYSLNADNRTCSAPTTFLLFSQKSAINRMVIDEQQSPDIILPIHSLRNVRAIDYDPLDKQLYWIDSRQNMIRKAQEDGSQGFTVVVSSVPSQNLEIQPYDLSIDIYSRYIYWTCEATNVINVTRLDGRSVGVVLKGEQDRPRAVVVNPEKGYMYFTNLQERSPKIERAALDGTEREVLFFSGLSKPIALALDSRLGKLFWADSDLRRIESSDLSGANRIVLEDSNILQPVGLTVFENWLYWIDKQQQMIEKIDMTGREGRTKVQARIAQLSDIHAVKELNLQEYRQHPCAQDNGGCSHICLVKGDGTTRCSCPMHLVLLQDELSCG

[4] = biological target: T1, human LRP6 β-propeller-EGF modules …; assay: ITC; 10 µM LRP6^P3E3P4E4 in the cell, 100 µM VHH injected, DPBS, 25 °C, triplicate; details: both partners purified
[5] = biological target: T2, human LRP6 β-propeller-EGF modules P3E3P4E4 (human, UniProt O75581 639-1244); assay: ITC
T2 chain: T1 chain

[6] = biological target: T1, human LRP6 β-propeller-EGF modules …; assay: quartz crystal microbalance (QCM); LRP6^P3E3P4E4 immobilised by amine coupling on an Attana LNB chip; VHHs injected (0.03-0.25 µg/mL) in HBS-T, single-cycle kinetics, 22 °C, 1:1 fitting model; details: both partners purified
[7] = biological target: T3, human LRP6 β-propeller-EGF modules P3E3P4E4 (Homo sapiens); assay: ITC; 10 µM LRP6 P3E3P4E4 in the sample cell, 100 µM VHH injected, DPBS, 25 °C; triplicate; details: both partners purified
T3 construct: low-density lipoprotein receptor-related protein 6 (LRP6), human, domains P3E3P4E4; Cloned with an N-terminal cystatin secretion signal; also called LRP6^P3E3P4E4; LRP6 P3E3P4E4; source: HEK293 GnTI- cells, transiently co-expressed with human MESD, secreted, purified (Ni-Sepharose excel, SEC)
T3 chain: T1 chain

[8] = biological target: T4, human LRP6 β-propeller-EGF modules P3E3P4E4 (Homo sapiens); assay: quartz crystal microbalance (QCM); LRP6 P3E3P4E4 immobilised by amine coupling on an Attana LNB chip; VHH injected at four rising concentrations (single cycle kinetics); 22 °C, HBS-T, 25 µL/min; 1:1 fitting model; details: both partners purified
T4 construct: Low-density lipoprotein receptor-related protein 6 (LRP6), human, domains P3E3P4E4; the methods say Uniprot residues 639-1244, the results say UNIPROT residues 629-1244; Expressed from pUPE107.03 with an N-terminal cystatin secretion signal; also called LRP6^P3E3P4E4; LRP6 P3E3P4E4; source: HEK293 GnTI- cells, transiently co-expressed with human MESD, secreted, purified (Ni-Sepharose excel, SEC …)
T4 chain: T1 chain

LRP6 P3E3P4E4 (Homo sapiens), sequence (O75581 631-1246): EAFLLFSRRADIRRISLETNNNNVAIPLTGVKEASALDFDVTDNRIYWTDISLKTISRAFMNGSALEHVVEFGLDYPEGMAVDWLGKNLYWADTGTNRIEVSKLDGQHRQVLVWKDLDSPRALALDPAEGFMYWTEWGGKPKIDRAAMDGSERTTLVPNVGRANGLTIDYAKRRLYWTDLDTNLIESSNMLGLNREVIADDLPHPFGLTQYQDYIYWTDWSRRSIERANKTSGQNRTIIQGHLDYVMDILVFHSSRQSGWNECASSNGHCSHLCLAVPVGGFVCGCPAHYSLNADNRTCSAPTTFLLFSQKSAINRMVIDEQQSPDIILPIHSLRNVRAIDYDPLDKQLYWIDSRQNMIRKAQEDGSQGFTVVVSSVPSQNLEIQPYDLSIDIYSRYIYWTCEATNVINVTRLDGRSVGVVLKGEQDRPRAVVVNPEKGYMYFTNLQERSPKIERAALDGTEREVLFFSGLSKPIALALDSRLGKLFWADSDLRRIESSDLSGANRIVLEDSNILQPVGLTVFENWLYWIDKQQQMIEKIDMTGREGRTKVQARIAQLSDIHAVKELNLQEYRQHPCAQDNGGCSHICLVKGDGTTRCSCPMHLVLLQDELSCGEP
LRP6 P1E1P2E2 (Homo sapiens), sequence (O75581 20-630): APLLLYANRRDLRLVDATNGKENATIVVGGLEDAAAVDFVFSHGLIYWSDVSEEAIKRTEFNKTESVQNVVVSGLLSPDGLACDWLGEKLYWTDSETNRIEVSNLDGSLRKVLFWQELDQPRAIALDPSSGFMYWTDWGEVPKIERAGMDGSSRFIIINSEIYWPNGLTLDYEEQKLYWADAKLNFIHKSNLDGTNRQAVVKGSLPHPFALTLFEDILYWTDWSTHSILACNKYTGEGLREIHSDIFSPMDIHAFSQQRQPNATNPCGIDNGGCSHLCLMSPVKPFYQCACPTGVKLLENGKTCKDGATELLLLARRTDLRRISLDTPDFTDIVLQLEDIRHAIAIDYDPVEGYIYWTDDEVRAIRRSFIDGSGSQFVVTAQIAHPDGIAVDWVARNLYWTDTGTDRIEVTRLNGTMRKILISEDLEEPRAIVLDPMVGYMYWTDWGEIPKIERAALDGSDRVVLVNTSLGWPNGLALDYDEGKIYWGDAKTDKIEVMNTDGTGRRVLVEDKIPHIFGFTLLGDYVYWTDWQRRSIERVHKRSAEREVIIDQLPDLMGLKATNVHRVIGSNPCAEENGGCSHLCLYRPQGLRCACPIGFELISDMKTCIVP

Molecule: DKK1 DKK1_C (from UniProt O94907)
- Kd [1]: 70 nM
- Kd [2]: 70 nM

- IC50 of inhibition of cellular responses to Wnt3a (Wnt luciferase reporter, HEK293T); blocks Wnt3a with LRP6 [3]: 82 nM
- IC50 of inhibition of cellular responses to the combination of Wnt3a and R-spondin1 (Wnt luciferase reporter, HEK293T); blocks Wnt3a with LRP6 [3]: 40 nM
- Kd [4]: < 40 nM
- stoichiometry N [4]: 1
- Kd [5]: 12.8 nM
- koff [6]: ~0.0001 s⁻¹
- kon [6]: ~100000 M⁻¹ s⁻¹
B1: anti-LRP6 VHH L-P2-B10 with C-terminal V5-FLAG3-His6-tag (VHH)
VHH: EVQLQESGGCLVQAGGSLRLSCAASGSTFSTYTIGWFRQAPGKEREFVAAIHWDGGQTYYADSVKGRFTISRDNAKNTVYLQMNSLKPEDTAVYYCAARGRRYFDFTYSDVYDYWGQGTQVTVSS
notes: Selected by CIS display from a fully synthetic VHH library; also called anti-LRP6^P3E3P4E4 VHH; anti-LRP5/6^P3 VHH; source: E. coli BL21 (BL21-Gold), purified (IMAC, SEC Superdex 75); not shown: V5, C-terminal, kept; FLAG3, C-terminal, kept; His6, C-terminal, kept

- Kd [7]: 14.5 nM and 11.9 nM and 12.2 nM
- stoichiometry N [7]: 1.09 and 1.08 and 1.15
B2: anti-LRP6 VHH L-P2-B10 (VHH)
VHH: B1 VHH
notes: they are in the deposited structure of its complex with LRP6 P3E3P4E4 (PDB 6H15 or 6H16); Selected by CIS display from a fully synthetic VHH library; source: E. coli BL21, purified (IMAC, SEC); not shown: V5, C-terminal, kept; FLAG3, C-terminal, kept; His6, C-terminal, kept

- Kd [8]: 0.8 nM
- koff [8]: 0.00014 s⁻¹
- kon [8]: 180000 M⁻¹ s⁻¹
B3: anti-LRP6 VHH L-P2-B10, C-terminal V5-FLAG3-His6-tagged (VHH)
VHH: B1 VHH
notes: also in the deposited structure of the complex with LRP6 P3E3P4E4; Selected by CIS display from a fully synthetic VHH library; source: E. coli BL21 Gold, purified (IMAC, SEC Superdex 75); not shown: V5, C-terminal, kept; FLAG3, C-terminal, kept; His6, C-terminal, kept

- Kd [5]: 17.5 nM
- Kd [8]: 2.3 nM
- koff [8]: 0.00018 s⁻¹
- kon [8]: 81000 M⁻¹ s⁻¹
B4: anti-LRP6 VHH L-P2-H07, C-terminal V5-FLAG3-His6-tagged (VHH)
VHH: EVQLQESGGGLVQAGGSLRLSCAASGDIISSYRMGWFRQAPGKEREFVSDITPSIGHTYYADSVKGRFTISRDNAKNTVYLQMNSLKPEDTAVYYCRAVDRSYRYPYEYWGQGTQVTVSS
notes: Selected by CIS display from a fully synthetic VHH library; No structure of its complex was deposited; source: E. coli BL21 Gold, purified (IMAC, SEC Superdex 75); not shown: V5, C-terminal, kept; FLAG3, C-terminal, kept; His6, C-terminal, kept

- Kd [8]: 0.4 nM
- koff [8]: 0.00015 s⁻¹
- kon [8]: 370000 M⁻¹ s⁻¹
B5: anti-LRP6 VHH L-P2-D07, C-terminal V5-FLAG3-His6-tagged (VHH)
VHH: EVQLQESGGGLVQAGGSLRLSCAASGRTFSIYTIGWFRQAPGKEREFVAEITWSGGSTYYADSVKGRFTISRDNAKNTVYLQMNSLKPEDTAVYYCAAITYTRGIYKYWGQGTQVTVSS
notes: also in the deposited structure of the complex with LRP6 P3E3P4E4; Selected by CIS display from a fully synthetic VHH library; also called L-P2-D07-V5-Flag3-His6; source: E. coli BL21 Gold, purified (IMAC, SEC Superdex 75); not shown: V5, C-terminal, kept; FLAG3, C-terminal, kept; His6, C-terminal, kept

- Kd [7]: 30.3 nM and 35.7 nM and 29.4 nM
- stoichiometry N [7]: 0.921 and 0.893 and 0.881
B6: anti-LRP6 VHH L-P2-D07 (VHH)
VHH: B5 VHH
notes: as for B2

- IC50 of inhibition of cellular responses to Wnt3a (Wnt luciferase reporter, HEK293T); blocks Wnt3a with LRP6 [3]: 94 nM
- IC50 of inhibition of cellular responses to the combination of Wnt3a and R-spondin1 (Wnt luciferase reporter, HEK293T); blocks Wnt3a with LRP6 [3]: 40 nM
- Kd [4]: < 40 nM
- stoichiometry N [4]: 1
- koff [6]: ~0.0001 s⁻¹
- kon [6]: ~100000 M⁻¹ s⁻¹
B7: anti-LRP6 VHH L-P2-D07 with C-terminal V5-FLAG3-His6-tag (VHH)
VHH: B5 VHH
notes: as for B1

— PMC6341108, “Anti-LRP5/6 VHHs promote differentiation of Wnt-hypersensitive intestinal stem cells” (Nature Communications, 2019)
